The source of these data is EP1117687B1.

The target in this test is Mouse MHC Class I (mouse B6 class I antigens, H-2^b: D^b or K^b) on RMA-S cells (mouse). The test is described as follows: RMA-S MHC stabilisation, flow cytometry with FITC anti-D^b or anti-K^b.
On to WT1 peptide P118-126 …, for which the Binding Affinity to Mouse MHC Class I (percent increase of D^b or K^b on RMA-S cells) was 2%.
WT1 peptide P123-131 … yielded a Binding Affinity to Mouse MHC Class I (percent increase of D^b or K^b on RMA-S cells) of 1%.
To WT1 peptide P119-127 … belongs 2%.
The molecule WT1 peptide p126-134 … returned a Binding Affinity to Mouse MHC Class I (percent increase of D^b or K^b on RMA-S cells) of 79%.
WT1 peptide P120-128 … returned a Binding Affinity to Mouse MHC Class I (percent increase of D^b or K^b on RMA-S cells) of 1%.
In turn, WT1 peptide P125-133 … displayed a Binding Affinity to Mouse MHC Class I (percent increase of D^b or K^b on RMA-S cells) of 1%.
To WT1 peptide P128-136 … belongs 1%; to WT1 peptide P122-130 …, 1%; to WT1 peptide P130-138 …, 79%.
To QARMFPNAP [WT1 peptide P124-132 …] belongs 1%; to MFPNAPYLP [WT1 peptide P127-135 …], 2%; to SSGQARMFP [WT1 peptide P121-129 …], 1%.
Under PSQASSGQA [WT1 peptide P117-125 …] stands 2%; under APYLPSCLE [WT1 peptide P131-139 …], 1%.
On to PNAPYLPSC [WT1 peptide P129-137 …], for which the Binding Affinity to Mouse MHC Class I (percent increase of D^b or K^b on RMA-S cells) is 1%.
